We go through 1 molecule from US20070219116A1 (TROPHOGEN, published 2007).

The target in test [1] is T1, human FSH receptor (human, UniProt P23945 18-695).
T1 sequence: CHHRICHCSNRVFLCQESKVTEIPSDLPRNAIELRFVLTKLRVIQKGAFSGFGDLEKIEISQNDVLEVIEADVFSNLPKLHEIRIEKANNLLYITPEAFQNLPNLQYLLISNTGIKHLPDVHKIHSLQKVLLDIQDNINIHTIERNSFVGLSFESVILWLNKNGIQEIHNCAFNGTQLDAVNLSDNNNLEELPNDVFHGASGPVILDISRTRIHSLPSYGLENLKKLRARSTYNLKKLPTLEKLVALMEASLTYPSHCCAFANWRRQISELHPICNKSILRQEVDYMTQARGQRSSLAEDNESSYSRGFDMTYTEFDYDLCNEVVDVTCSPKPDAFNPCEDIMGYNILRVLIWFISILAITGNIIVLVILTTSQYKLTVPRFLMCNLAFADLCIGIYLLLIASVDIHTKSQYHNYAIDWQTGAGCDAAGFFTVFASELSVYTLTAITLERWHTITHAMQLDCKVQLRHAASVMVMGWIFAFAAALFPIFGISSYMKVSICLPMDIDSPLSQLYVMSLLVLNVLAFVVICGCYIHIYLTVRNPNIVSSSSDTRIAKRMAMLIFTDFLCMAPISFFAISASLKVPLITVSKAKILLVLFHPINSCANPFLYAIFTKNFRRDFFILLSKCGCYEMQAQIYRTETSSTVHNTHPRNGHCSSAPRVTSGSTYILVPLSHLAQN
The test can be described thus: cell-based or functional assay.

Test [2] deals with T2, human LH receptor (human, UniProt P22888 27-699, limits assumed).
T2 construct: the form used in the assay is not described; also called human luteinizing hormone (receptor)
The test can be described thus: not described; data not shown.

Test [3] deals with T3, rat LH receptor (rat, UniProt P16235 27-700, limits assumed).
T3 construct: the form used in the assay is not described; also called rat luteinizing hormone receptor
In words: not described; data not shown.

T3 sequence (P16235 27-700 limits assumed): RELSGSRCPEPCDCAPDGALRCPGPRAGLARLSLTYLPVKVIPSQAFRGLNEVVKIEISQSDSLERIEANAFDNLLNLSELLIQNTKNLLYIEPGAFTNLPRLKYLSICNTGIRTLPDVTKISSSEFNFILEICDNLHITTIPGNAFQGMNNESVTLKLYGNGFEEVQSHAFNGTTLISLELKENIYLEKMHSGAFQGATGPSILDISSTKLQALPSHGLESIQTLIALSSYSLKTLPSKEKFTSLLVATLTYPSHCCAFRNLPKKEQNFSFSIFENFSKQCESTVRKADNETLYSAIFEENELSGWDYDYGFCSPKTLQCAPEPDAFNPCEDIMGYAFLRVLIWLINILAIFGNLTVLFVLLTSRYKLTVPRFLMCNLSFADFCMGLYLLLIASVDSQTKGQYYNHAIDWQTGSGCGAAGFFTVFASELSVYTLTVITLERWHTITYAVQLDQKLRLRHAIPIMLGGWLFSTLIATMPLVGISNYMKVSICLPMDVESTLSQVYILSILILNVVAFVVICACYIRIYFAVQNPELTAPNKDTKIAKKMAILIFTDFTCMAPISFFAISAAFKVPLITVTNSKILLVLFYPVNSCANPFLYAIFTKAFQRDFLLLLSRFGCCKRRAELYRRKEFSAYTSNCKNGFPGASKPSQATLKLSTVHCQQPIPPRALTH
T2 sequence (P22888 27-699 R124G/N312S limits assumed): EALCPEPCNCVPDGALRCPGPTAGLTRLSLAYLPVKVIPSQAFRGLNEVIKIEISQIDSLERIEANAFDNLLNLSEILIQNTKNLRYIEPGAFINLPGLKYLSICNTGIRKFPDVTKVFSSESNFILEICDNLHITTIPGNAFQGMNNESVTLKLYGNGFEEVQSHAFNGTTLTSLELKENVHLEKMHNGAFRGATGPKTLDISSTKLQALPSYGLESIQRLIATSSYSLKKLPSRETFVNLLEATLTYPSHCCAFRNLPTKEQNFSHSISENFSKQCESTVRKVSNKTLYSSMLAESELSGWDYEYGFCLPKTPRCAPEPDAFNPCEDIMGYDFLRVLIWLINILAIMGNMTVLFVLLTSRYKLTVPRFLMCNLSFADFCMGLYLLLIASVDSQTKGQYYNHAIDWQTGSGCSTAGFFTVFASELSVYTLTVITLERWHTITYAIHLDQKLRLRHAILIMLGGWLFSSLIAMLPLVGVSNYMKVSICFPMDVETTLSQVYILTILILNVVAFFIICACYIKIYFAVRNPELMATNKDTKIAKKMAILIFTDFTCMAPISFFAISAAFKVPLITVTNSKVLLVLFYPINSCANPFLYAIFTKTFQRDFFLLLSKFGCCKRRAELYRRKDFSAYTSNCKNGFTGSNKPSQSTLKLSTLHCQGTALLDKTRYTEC

B1: FSH analog TR-4402: alpha(E14R + Q20R + G73R) + betaE4R (ligand)
chain 1: not shown
chain 2: NSCRLTNITIAIEKEECRFCISINTTWCAGYCYTRDLVYKDPARPKIQKTCTFKELVYETVRVPGCAHHADSLYTYPVATQCHCGKCDSDSTDCTVRGLGPSYCSFGEMKE
With B1, in test [1], the “potency, total cAMP production in CHO-FSHR cells, compared to Follistim (wild type FSH)” value is 30 fold and the “potency, total cAMP production in KGN-FSHR cells, compared to wild type FSH” value came out at 30 fold. Besides, the binding result in test [2] is reported as “no binding”. Moreover, the binding result in test [3] is given as “binds”.
